Consider 13 molecules from patent publication US20240317858A1 (Adimab, published 2024).

The target in experiment [1] is T1, Cynomolgus CD3 on HSC-F cells (cynomolgus, UniProt Q95LI5 22-198).
T1 construct: whole, on cells; Target is the endogenous CD3 complex on cells; also called Cyno CD3 HSC-F cells; Cyno CD3+ HSC-F cells
Briefly: flow cytometry, 100 nM IgG1, pH 7.4. Here is the method: (§1) Cell binding assays. CD3+ human Jurkat cells (ATCC) and CHO-S cells (Invitrogen/ThermoFisher) were thawed and washed with cold PBSF buffer, pH 7.4 (PBS+0.1% BSA, pH 7.4). About 200,000 cells were aliquoted per well of a 96-well plate (FACS Assay Plate VWR BD 353263) and pelleted by centrifugation (5 minutes at 500×g). The cells were washed with either PBSF pH 7.4 or PBSF pH 6.0 (PBS+0.1% BSA, pH 6.0), and then resuspended in 100 μl in either PBSF pH 7.4 or PBSF pH 6.0 with IgG1 antibody (100 nM) produced in yeast as described above or in CHO cells. The mixture (cells+antibody) was incubated for 20 minutes on ice, then washed twice with either PBSF pH 7.4 or PBSF pH 6.0. Cells were resuspended in 50 μl of propidium iodide (Roche; 1:500 dilution) and anti-human IgG-RPE (Southern Biotech; 1:100 dilution) prepared in either PBSF pH 7.4 or PBSF pH 6.0, then incubated for 20 minutes on ice in the dark before cells were washed twice with either PBSF pH 7.4 or PBSF pH 6.0. Binding was analyzed on FACS Canto II.
(§2) Anti-CD3 antibodies A001-A005, V002, V004, V007, V009, V010, V013, and V014-V019 were produced as IgG1s in CHO cells, and binding to human CD3+ Jurkat cells and cynomolgus CD3+ HSC-F cells at pH 7.4 was analyzed by flow cytometry as described in Example 2. NCB (Normalized Cell Binding) values were calculated based on control and sample MFI values as NCB={(Sample MFI)−(Secondary only MFI)}/(Secondary only MFI).
(A flow cytometer gives signals particle by particle.)

Experiment [2] has as its target T2, Human CD3 on CD3+ Jurkat cells (human, UniProt P07766 23-207).
T2 construct: whole, on cells; Target is the endogenous CD3 complex on cells; also called Human CD3+ Jurkat cells
In words: flow cytometry, 100 nM IgG1, pH 7.4. The method, then: as §1, §2

Experiment [3] addresses T1, Cynomolgus CD3 on HSC-F cells. Briefly: flow cytometry, 100 nM IgG. Here is the method:
(§3) Specificity of the anti-CD3 antibodies for human CD3+ Jurkat cells and Cynomolgus monkey HSC-F cells was determined using a FACS cell binding assay. Briefly, cells were thawed and washed with cold PBSF buffer (PBS+0.1% BSA, pH 7.4). About 200,000 cells were aliquoted per well of a 96-well plate and pelleted by centrifugation (5 minutes at 500×g). The cells were washed and resuspended in 100 μl PBSF with CHO-produced anti-CD3 IgG antibody (100 nM). The mixture (cells+antibody) was incubated for 20 minutes on ice, then washed twice with PBSF. Cells were resuspended in 50 μl of propidium iodide (1:500 dilution) and anti-human IgG-RPE (1:100 dilution) prepared in PBSF, then incubated for 20 minutes on ice in the dark before cells were washed twice with PBSF. Binding was analyzed on FACS Canto II. Also shown are results using cells without CD3 [CHO-S cells, Jurkat CD3 knockout (CD3−) cells, and HEK cells] for comparison, including results with Jurkat CD3-cells combined with anti-CD3 antibody Fab fragments (100 nM).

For experiment [4], the target named is T2, Human CD3 on CD3+ Jurkat cells. In words: flow cytometry, 100 nM IgG. Here is the method: as §3

T1 sequence (Q95LI5 22-198): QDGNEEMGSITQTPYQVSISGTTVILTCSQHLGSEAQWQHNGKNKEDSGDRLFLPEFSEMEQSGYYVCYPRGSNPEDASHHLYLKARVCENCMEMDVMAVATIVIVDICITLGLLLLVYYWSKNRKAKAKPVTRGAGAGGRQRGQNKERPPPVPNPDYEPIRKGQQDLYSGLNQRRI
T2 sequence (P07766 23-207): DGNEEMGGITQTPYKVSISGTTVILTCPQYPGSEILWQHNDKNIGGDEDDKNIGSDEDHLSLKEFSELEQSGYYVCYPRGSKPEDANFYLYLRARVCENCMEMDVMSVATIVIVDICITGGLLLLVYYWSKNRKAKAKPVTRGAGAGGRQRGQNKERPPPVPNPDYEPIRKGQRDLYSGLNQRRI

B1: Antibody No. A001 (ADI-26906) IgG1 (antibody, V domains shown)
VH: QVQLVQSGAEVKKPGASVKVSCKASGFNIKDYYMHWVRQAPGQRLEWMGWIDLENANTIYDAKFQGRVTITRDTSASTAYMELSSLRSEDTAVYYCARDAYGRYFYDVWGQGTLVTVSS
VL: DIVMTQSPDSLAVSLGERATINCKSSQSLLNARTGKNYLAWYQQKPGQPPKLLIYWASTRESGVPDRFSGSGSGTDFTLTISSLQAEDVAVYYCKQSYSRRTFGGGTKVEIK
notes: IgG1, CHO-produced
As for B1, the “NCB (Normalized Cell Binding)” value in experiment [1] came out at 400; in experiment [2], 289. In addition, the figures for the MFI in experiment [3] and in experiment [4] were 6050 MFI and 3150 MFI, respectively.

B2: Antibody No. V008 (ADI-70325) IgG1 (antibody, V domains shown)
VH: QVQLVQSGAEVKKPGASVKVSCKASGFNIKDYYMHWVRQAPGQRLEWIGWIDLENAETVYDAKFQDRVTITRDTSASTAYMELSSLRSEDTAVYYCARDAYGRYFYDVWGQGTLVTVSS
VL: DIVMSQSPDSLAVSLGERATINCKSSQSLLNARTGKNYLAWYQQKPGQPPKLLIYWASTRSSGVPDRFSGSGSGTDFTLTISSLQAEDVAVYYCVQSYFRRTFGGGTKVEIK
notes: IgG1, CHO-produced
Consider B2, for which the MFI came out at 6400 MFI in experiment [3] and 3200 MFI in experiment [4].

B3: Antibody No. V009 (ADI-70326) IgG1 (antibody, V domains shown)
VH: QVQLVQSGAEVKKPGASVKVSCKASGFDIKDYYMHWVRQAPGQRLEWIGWIELENADTVYDAKFQGRVTITRDTSASTAYMELSSLRSEDTAVYYCARDAYGRYFYDVWGQGTLVTVSS
VL: DIVMSQSPDSLAVSLGERATINCKSSQSLLNARTGKNYLAWYQQKPGQPPKLLIYWASTRSSGVPDRFSGSGSGTDFTLTISSLQAEDVAVYYCVQSYFRRTFGGGTKVEIK
notes: IgG1, CHO-produced
Turning to B3, the “NCB (Normalized Cell Binding)” value in experiment [1] is 396; in experiment [2], 309. Moreover, the MFI was 6230 MFI in experiment [3] and 3070 MFI in experiment [4].

B4: Antibody No. A002 (ADI-50024) IgG1 (antibody, V domains shown)
VH: QVQLVQSGAEVKKPGASVKVSCKASGFNIKDYYMHWVRQAPGQRLEWIGWIDLENANTVYDAKFQGRVTITRDTSASTAYMELSSLRSEDTAVYYCARDAYGRYFYDVWGQGTLVTVSS
VL: DIVMSQSPDSLAVSLGERATINCKSSQSLLNARTGKNYLAWYQQKPGQPPKLLIYWASTRSSGVPDRFSGSGSGTDFTLTISSLQAEDVAVYYCVQSYFRRTFGGGTKVEIK
notes: IgG1, CHO-produced
In the case of B4, the “NCB (Normalized Cell Binding)” value in experiment [1] turned out to be 417; in experiment [2] it was 366. Moreover, the MFI in experiment [3] turned out to be 6310 MFI; in experiment [4], 3410 MFI.

B5: Antibody No. V012 (ADI-70329) IgG1 (antibody, V domains shown)
VH: QVQLVQSGAEVKKPGASVKVSCKASGFNDKDYYMHWVRQAPGQRLEWIGWIDLENAETVYDAKFQDRVTITRDTSASTAYMELSSLRSEDTAVYYCARDAYGRYFYDVWGQGTLVTVSS
VL: DIVMSQSPDSLAVSLGERATINCKSSQSLLNARTGKNYLAWYQQKPGQPPKLLIYWASTRSSGVPDRFSGSGSGTDFTLTISSLQAEDVAVYYCVQSYFRRTFGGGTKVEIK
notes: IgG1, CHO-produced
For B5, the MFI in experiment [3] came out at 5800 MFI; in experiment [4], 3020 MFI.

B6: Antibody No. V003 (ADI-67446) IgG1 (antibody, V domains shown)
VH: QVQLVQSGAEVKKPGASVKVSCKASGFDIKDYYMHWVRQAPGQRLEWMGWIELENADTIYDAKFQGRVTITRDTSASTAYMELSSLRSEDTAVYYCARDAYGRYFYDVWGQGTLVTVSS
VL: DIVMTQSPDSLAVSLGERATINCKSSQSLLNARTGKNYLAWYQQKPGQPPKLLIYWASTRESGVPDRFSGSGSGTDFTLTISSLQAEDVAVYYCKQSYSRRTFGGGTKVEIK
notes: IgG1, CHO-produced
Take B6: the MFI came out at 6010 MFI in experiment [3] and 3020 MFI in experiment [4].

B7: Antibody No. V005 (ADI-67448) IgG1 (antibody, V domains shown)
VH: QVQLVQSGAEVKKPGASVKVSCKASGFNIDDYYMHWVRQAPGQRLEWMGWIDLENDNTIYDAKFQGRVTITRDTSASTAYMELSSLRSEDTAVYYCARDAYGRYFYDVWGQGTLVTVSS
VL: DIVMTQSPDSLAVSLGERATINCKSSQSLLNARTGKNYLAWYQQKPGQPPKLLIYWASTRESGVPDRFSGSGSGTDFTLTISSLQAEDVAVYYCKQSYSRRTFGGGTKVEIK
notes: IgG1, CHO-produced; VH as printed is identical to that of V004
Turning to B7, the MFI in experiment [3] came out at 5940 MFI; in experiment [4], 3150 MFI.

B8: Antibody No. V011 (ADI-70328) IgG1 (antibody, V domains shown)
VH: QVQLVQSGAEVKKPGASVKVSCKASGFNIDDYYMHWVRQAPGQRLEWIGWIDLENDNTVYDAKFQGRVTITRDTSASTAYMELSSLRSEDTAVYYCARDAYGRYFYDVWGQGTLVTVSS
VL: DIVMSQSPDSLAVSLGERATINCKSSQSLLNARTGKNYLAWYQQKPGQPPKLLIYWASTRSSGVPDRFSGSGSGTDFTLTISSLQAEDVAVYYCVQSYFRRTFGGGTKVEIK
notes: IgG1, CHO-produced
With B8, the MFI was found to be 5910 MFI in experiment [3] and 3000 MFI in experiment [4].

B9: Antibody No. V007 (ADI-67450) IgG1 (antibody, V domains shown)
VH: QVQLVQSGAEVKKPGASVKVSCKASGFNIDDYYMHWVRQAPGQRLEWMGWIDLENANTIDDAKFQGRVTITRDTSASTAYMELSSLRSEDTAVYYCARDAYGRYFYDVWGQGTLVTVSS
VL: DIVMTQSPDSLAVSLGERATINCKSSQSLLNARTGKNYLAWYQQKPGQPPKLLIYWASTRESGVPDRFSGSGSGTDFTLTISSLQAEDVAVYYCKQSYSRRTFGGGTKVEIK
notes: IgG1, CHO-produced
B9: the “NCB (Normalized Cell Binding)” value in experiment [1] was 368; in experiment [2], 287. Further, the MFI worked out at 5490 MFI in experiment [3] and 2930 MFI in experiment [4].

B10: Antibody No. V013 (ADI-70330) IgG1 (antibody, V domains shown)
VH: QVQLVQSGAEVKKPGASVKVSCKASGFNIDDYYMHWVRQAPGQRLEWIGWIDLENANTVDDAKFQGRVTITRDTSASTAYMELSSLRSEDTAVYYCARDAYGRYFYDVWGQGTLVTVSS
VL: DIVMSQSPDSLAVSLGERATINCKSSQSLLNARTGKNYLAWYQQKPGQPPKLLIYWASTRSSGVPDRFSGSGSGTDFTLTISSLQAEDVAVYYCVQSYFRRTFGGGTKVEIK
notes: IgG1, CHO-produced
Turning to B10, the entries for the “NCB (Normalized Cell Binding)” value in experiment [1] and in experiment [2] were 374 and 295, respectively. Besides, the MFI came out at 5740 MFI in experiment [3] and 2950 MFI in experiment [4].

B11: Antibody No. V010 (ADI-70327) IgG1 (antibody, V domains shown)
VH: QVQLVQSGAEVKKPGASVKVSCKASGFDIKDYYMHWVRQAPGQRLEWIGWIELENDDTVYDAKFQGRVTITRDTSASTAYMELSSLRSEDTAVYYCARDAYGRYFYDVWGQGTLVTVSS
VL: DIVMSQSPDSLAVSLGERATINCKSSQSLLNARTGKNYLAWYQQKPGQPPKLLIYWASTRSSGVPDRFSGSGSGTDFTLTISSLQAEDVAVYYCVQSYFRRTFGGGTKVEIK
notes: IgG1, CHO-produced
As to B11, the entries for the “NCB (Normalized Cell Binding)” value in experiment [1] and in experiment [2] were 378 and 298, respectively. The MFI worked out at 5860 MFI in experiment [3] and 2910 MFI in experiment [4].

B12: Antibody No. V006 (ADI-67449) IgG1 (antibody, V domains shown)
VH: QVQLVQSGAEVKKPGASVKVSCKASGFNDKDYYMHWVRQAPGQRLEWMGWIDLENAETIYDAKFQDRVTITRDTSASTAYMELSSLRSEDTAVYYCARDAYGRYFYDVWGQGTLVTVSS
VL: DIVMTQSPDSLAVSLGERATINCKSSQSLLNARTGKNYLAWYQQKPGQPPKLLIYWASTRESGVPDRFSGSGSGTDFTLTISSLQAEDVAVYYCKQSYSRRTFGGGTKVEIK
notes: IgG1, CHO-produced
With B12, the MFI in experiment [3] was 5750 MFI; in experiment [4], 3040 MFI.

B13: Antibody No. V002 (ADI-67445) IgG1 (antibody, V domains shown)
VH: QVQLVQSGAEVKKPGASVKVSCKASGFNIKDYYMHWVRQAPGQRLEWMGWIDLENAETIYDAKFQDRVTITRDTSASTAYMELSSLRSEDTAVYYCARDAYGRYFYDEWGQGTLVTVSS
VL: DIVMTQSPDSLAVSLGERATINCKSSQSLLNARTGKNYLAWYQQKPGQPPKLLIYWASTRESGVPDRFSGSGSGTDFTLTISSLQAEDVAVYYCKQSYSRRTFGGGTKVEIK
notes: IgG1, CHO-produced
B13: the “NCB (Normalized Cell Binding)” value came out at 388 in experiment [1] and 320 in experiment [2]. Further, the results for the MFI in experiment [3] and in experiment [4] were 5960 MFI and 3040 MFI, respectively.
